In this series the target is T1, POT1 (human, UniProt Q9NUX5 1-634).
T1 sequence: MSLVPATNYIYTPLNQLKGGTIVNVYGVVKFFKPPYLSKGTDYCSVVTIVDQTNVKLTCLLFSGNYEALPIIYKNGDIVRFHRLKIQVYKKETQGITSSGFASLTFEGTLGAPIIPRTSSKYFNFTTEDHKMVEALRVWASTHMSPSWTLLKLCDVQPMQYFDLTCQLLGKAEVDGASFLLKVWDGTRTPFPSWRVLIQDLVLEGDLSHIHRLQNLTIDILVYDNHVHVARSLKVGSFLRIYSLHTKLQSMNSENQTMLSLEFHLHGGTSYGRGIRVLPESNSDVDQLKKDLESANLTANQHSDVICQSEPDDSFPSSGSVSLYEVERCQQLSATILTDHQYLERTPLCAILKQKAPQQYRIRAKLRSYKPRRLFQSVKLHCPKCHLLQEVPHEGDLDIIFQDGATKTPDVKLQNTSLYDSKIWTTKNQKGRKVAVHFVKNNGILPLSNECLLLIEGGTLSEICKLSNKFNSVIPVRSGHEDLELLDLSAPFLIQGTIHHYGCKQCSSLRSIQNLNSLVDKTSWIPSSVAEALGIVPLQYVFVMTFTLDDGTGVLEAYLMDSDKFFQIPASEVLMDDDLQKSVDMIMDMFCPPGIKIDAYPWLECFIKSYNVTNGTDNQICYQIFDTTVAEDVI
The experiment in a line: smFRET; FRET to 0.45; 10 mM Tris-HCl pH 7.5, 100 mM NaCl, 10% glycerol, oxygen scavenging system (trolox, glucose, glucose oxidase, catalase), ~23 C. As to conditions: protein: recombinant; label: 3'Cy3 strand 1; Cy5 and 3'biotin strand 2; 3' overhang 24 nt; 18 bp duplex.

B1: T6(TTAGGG)2T6 overhang (mixed)
DNA 1: TGGCGACGGCAGCGAGGCTTTTTTTTAGGGTTAGGGTTTTTT
DNA 2: GCCTCGCTGCCGTCGCCA
With B1, the binding result is “binds”.

The record behind these values is paper PMC8643667, “TRF2 promotes dynamic and stepwise looping of POT1 bound telomeric overhang”.
